Laboratory results: publication PMC11846418 (Cancer Cell International, 2025)

Target: HA-CDK1 (UniProt P06493 1-297)
Test: pull-down

Sequence of HA-CDK1 (P06493 whole entry): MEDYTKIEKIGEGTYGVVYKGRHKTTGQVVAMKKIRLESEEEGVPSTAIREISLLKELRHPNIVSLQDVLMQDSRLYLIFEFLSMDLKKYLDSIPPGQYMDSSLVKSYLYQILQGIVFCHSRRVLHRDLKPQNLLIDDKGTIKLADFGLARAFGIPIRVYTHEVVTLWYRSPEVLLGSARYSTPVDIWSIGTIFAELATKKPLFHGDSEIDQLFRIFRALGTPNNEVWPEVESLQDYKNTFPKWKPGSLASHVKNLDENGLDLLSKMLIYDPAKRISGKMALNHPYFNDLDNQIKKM

B1: GST-USP7 210-500 (domain or fragment, UniProt Q93009 210-500, looked up)
chain: HTGYVGLKNQGATCYMNSLLQTLFFTNQLRKAVYMMPTEGDDSSKSVPLALQRVFYELQHSDKPVGTKKLTKSFGWETLDSFMQHDVQELCRVLLDNVENKMKGTCVEGTIPKLFRGKMVSYIQCKEVDYRSDRREDYYDIQLSIKGKKNIFESFVDYVAVEQLDGDNKYDAGEHGLQEAEKGVKFLTLPPVLHLQLMRFMYDPQTDQNIKINDRFEFPEQLPLDEFLQKTDPKDPANYILHAVLVHSGDNHGGHYVVYLNPKGDGKWCKFDDDVVSRCTKEEAIEHNYGG
  binding result: binds
